Laboratory results published in patent US20170052184A1 (published 2017).
Substitutions are numbered along the chain they refer to.

T1: HCV Core1-169 (HCV-1, UniProt P26664 1-169)
T1 construct: also called recombinant HCV core antigen
T1 sequence: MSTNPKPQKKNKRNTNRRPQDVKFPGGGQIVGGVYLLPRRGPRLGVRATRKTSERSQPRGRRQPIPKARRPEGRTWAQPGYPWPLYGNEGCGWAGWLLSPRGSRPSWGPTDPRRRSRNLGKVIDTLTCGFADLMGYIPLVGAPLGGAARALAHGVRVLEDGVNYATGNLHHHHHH

B1: HCV 208B-1096 (antibody, V domains shown)
VH: QVQLQQSGAGLAKPGASVKMSCKASGYTFTANKMHWAKQRPGQGLEWIGYIDPSSGYTEYNHKIQYKATLTADTSSSTAYMQLSTLTFEDSAVYYCTNFAYWGQGTLVTVSA
VL: DIVMTQTPLTLSVTIGQPASISCKSSQSLLFTNGKTYLNWFLQRPGQSPKRLIYLLSKLDSGVPDRFSGSGSGTDFTLKISRVEAEDLGVYYCLQSTYFPLTFGAGTKLELKR
B2: HCV 208B-395 (antibody, V domains shown)
VH: B1 VH with A37T, E59Q, Y66D, T85S
VL: DIVLTQSPATLSVTPGDRVSLSCRASQRIYNYLHWYQQKSHESPRLLIKYASQSISGIPSRFSGSGSGTDFILTINSVETEDFGMYFCQQSNSWPLTFGAGTKLELRR
B3: HCV 208B-589 (antibody, V domains shown)
VH: B1 VH with Y66D, T85S
VL: B1 VL
B4: HCV 208B-515 (antibody, V domains shown)
VH: QVQLQQPGAELVKPGASLKLSCRASGYTFTSYWIHWVKQRPGQGLEWIGEIDPSDSYTNYNQKFKGKATLTVDKSSRAAYMQLSSLTSEDSAVYYCARHYYGVFDSWGQGTKLTVSS
VL: QIVFTQYPAIMSASLGERVTMTCTASSSVTSSYLHWFQQKPGSSPKLWIYSTSNPGSGVPARFSGRGSGTSYSLSISSMEAEDAATYYCLQFHRSPWTFGGGTKLEIRR
B5: HCV 208B-1024 (antibody, V domains shown)
VH: EVQLVESGGDLVKPGGSLKLSCAASGFTFSNYGMSWVRQTPDKRLEWVATISSGGSYSYYPDSVKGRFTISRDNAKNILYLQMSSLKSEDTAMYYCASLYYGYGDYWGQGTAFTVSS
VL: DVLMTQTPLSLPVSLGDQASISCRSSQSIVHSNGNTYLEWYLQKLGQSPKLLIYRVSNRFSGVPDRFSGSGSGTDFTLKISRVEAEDLGVYYCFQGSHVPWTFGGGTKLEIKR
B6: HCV 208A-352 (antibody, V domains shown)
VH: QGQMQQSGAELVKPGASVKLSCKTSGFTFSSSFISWLKQKPGQSLEWIAWIYAGTGNTNYNQKFTDKAQLTVDTSSSTAYMQFSSLTTEDSAIYYCAISGTGFTYWGQGTLVTVSA
VL: B5 VL with T5A, S14T, I29L, Y41F, L45P, R55N, W101L, G105S
B7: HCV 208B-281 (antibody, V domains shown)
VH: B6 VH with M4L, F33Y, K40R, N57G, T104I
VL: B5 VL with I29L, S32N, Y41F, L45P, R55K, W101F, G105S
B8: HCV 208B-556 (antibody, V domains shown)
VH: QLQQSGPVLVKPGASVMISCKTSGYTFTENAMHWVKQSHGKSLEWIGGVNPNNGDTIFNQKFKGKATLTVDKSSSTAFMEFRSLTSEESTVYYCVRRELDFFDYWGQGTSVTVSS
VL: DIVLTQSPASLAVSLGQRATISCRASQSVSTSRYSYMHWYQQKPGQPPKLLIKYASNLESGVPARFSGSGSGTDFTLNIHPVAEEDTATYYCQHSWEFPFTFGSGTKLEIKR
B9: HCV 208A-830 (antibody, V domains shown)
VH: EVRLQQPGPEVEKPGASVKISCKTSGYTFTEYAIHWVKQSHGESLEWIGGINPSNGDPIYNQIFKDKATLTVDRSSNTAYMGLRSLTVGDSGVYFCVRRQLDYFDFWGQGASLTVSS
VL: B8 VL with A25S, M37L, A83G, T87P
B10: HCV 208A-1064 (antibody, V domains shown)
VH: EVQLQQSGPELVKPGASVKISCKTSGYTFTEYAMHWMKQSHGKSLEWIGGINPTNGDTIYNQKFKDKAKLTVDRSSSTAYMELRSLTSDDSALFYCARRELDYFASWGQGTTLTVSS
VL: B8 VL with A12I, R18T, Y34F, M37L, Y40I, A64V, A83E, Y91F, E109K
B11: HCV 208B-1094 (antibody, V domains shown)
VH: B10 VH with K63R
VL: B8 VL with A12I, R18T, V29L, Y34F, M37V, Y40I, A64V, A83E, Y91F, E109K
B12: HCV 208A-293 (antibody, V domains shown)
VH: B10 VH with T24A, Y27F, T58A, A105P
VL: B8 VL with A12I, Y34F, M37V, Y40I, A64V, T76I, A83E, Y91F
B13: HCV 208B-327 (antibody, V domains shown)
VH: EVQLVESGGGLVKPGGSLKLSCAASGFTFSDSYMYWVRQTPDQRLEWVATISDGGSYTFYPDSVKGRFTISRDNAQNNLYLQMSSLKSEDTAMYYCASPHAGYFGWFAYWGRGTLVTVSA
VL: DIVMTQAAFSNPVTPGTSVSISCRSSKSLLHSNGITYLYWYLQKPGQSPQLLIYQMSKIASGVPDRFRSSGSGTDFTLRISRVEAADVGVYYCAQNLELPWTFGGGTKLEIKR
B14: HCV 208A-877 (antibody, V domains shown)
VH: QLQQSGPELVKPGASVKISCKTSGYTFTENAMHWVKQSRGKSLEWIGGVNPNNGDTVYTQKFKGKATLTVAKSSSTAYMELRTMTCEESTVYYCASREPDFFDYWGQGSSVTVSS
VL: QIVLTQSPAIMSVSPGEKVSMTCSASSSVTYMHWYQQKSGTSPKRWIYDTSELASGVPARFSGSGSGTTYSLTISSMEAEDAATYYCQQWSNKPLTFGAGTKLELKR
B15: HCV 208B-408 (antibody, V domains shown)
VH: EVKLVESGGGLVQPGGSLRLSCASSGFTFTDYYMSWVRQPPGKALEWLGFIRNKAYGYTTEFSASVNGRFTISRDDSQSVPYLQMNTLRAEDSATYYCARVLYYDYGGFAYWGQGTLVTVST
VL: DIQMTQSPASLSASVGETVTITCRASGNIHTYLAWYQQKQGKSPQLLVYNANTLADGVPSRFSGSGSGTQFSLKINSLQPDDFGSYYCQHFWSAPWTFGGGTQLEIKR
B16: HCV 208B-178 (antibody, V domains shown)
VH: DVKLVESGGGLVKLGGSLKLSCAASGFTFSSYYMSWVRQTPEKRLELVAAINSNGGSTYYPDTVKGRFTISRDNAKNTLYLQMSSLKSEDTALYYCARHGGLGRRDWYFDVWGAGTTVTVSS
VL: DIVLTQSPASLAVSLGQRATISCRASESVDNYGISFMHWYQQKPGQPPKLLIYRASNLESGIPARFSGSGSRTDFTLTINPVETDDVATYYCQQSNKDPFTFGSGAKLEIKR
B17: HCV 208B-189 (antibody, V domains shown)
VH: QVHLQQSGAELAKPGASVQMSCKASGYTFTANKMHWARQRPRQGLEWIGYIDPASGYTEYNQKIKDRATLTADKSSSTAYMQLSSLTSEDSAVYYCTNFAYWGQGTLVTVST
VL: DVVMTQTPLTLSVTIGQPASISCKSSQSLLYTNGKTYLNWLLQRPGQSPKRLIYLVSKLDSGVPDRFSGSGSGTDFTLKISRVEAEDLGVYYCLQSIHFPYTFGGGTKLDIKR

Assays:
HCV Core1-169 [1] = target: T1, HCV Core1-169; test: EIA, core1-169 captured by mAb 14-153-229
HCV Core1-169 [2] = target: T1, HCV Core1-169; test: EIA, core1-169 coated on plate
Also: test concentration or dose not given here.

Row | Binder | OD (A492) (HCV Core1-169 [1]) [OD] | OD (A492) (HCV Core1-169 [2]) [OD]
1 | B1 | 1.75 | 0.49
2 | B2 | 1.95 | 0.5
3 | B3 | 1.29 | 0.68
4 | B4 | 0.08 | 0.06
5 | B5 | 0.31 | 0.6
6 | B6 | 0.53 | 0.1
7 | B7 | 0.11 | 0.09
8 | B8 | 1.35 | 0.74
9 | B9 | 2.09 | 1.16
10 | B10 | 1.57 | 0.94
11 | B11 | 1.51 | 0.9
12 | B12 | 2.31 | 1.41
13 | B13 | 0.11 | 0.14
14 | B14 | 1.25 | 0.9
15 | B15 | 0.09 | 0.09
16 | B16 | 1.09 | 0.89
17 | B17 | 1.81 | 0.49
